The DeepSol protein solubility set

Test: soluble on expression in E. coli; label from the status in PepcDB or PDB records

| Sequence | soluble on expression in E. coli |
| --- | --- |
| MGHHHHHHSHMADDIDIEAMLEAPYKKDENKLSSANGHEERSKKRKKSKSRSRSHERKRSKSKERKRSRDRERKKSKSRERKRSRSKERRRSRSRSRDRRFRGRYRSPYSGPKFNSAIRGKIGLPHSIKLSRRRSRSKSPFRKDKSPVREPIDNLTPEERDARTVFCMQLAARIRPRDLEEFFSTVGKVRDVRMISDRNSRRSKGIAYVEFVDVSSVPLAIGLTGQRVLGVPIIVQASQAEKNRAAAMANNLQKGSAGPMRLYVGSLHFNITEDMLRGIFEPFGRIESIQLMMDSETGRSKGYGFITFSDSECAKKALEQLNGFELAGRPMKVGHVTERTDASSASSFLDSDELERTGIDLGTTGRLQLMARLAEGTGLQIPPAAQQALQMSGSLAFGAVAEFSFVIDLQTRLSQQTEASALAAAASVQPLATQCFQLSNMFNPQTEEEVGWDTEIKDDVIEECNKHGGVIHIYVDKNSAQGNVYVKCPSIAAAIAAVNALHGRWFAGKMITAAYVPLPTYHNLFPDSMTATQLLVPSRR | soluble |
| MGHHHHHHSHMETLSNASGTFAIRLLKILCQDNPSHNVFCSPVSISSALAMVLLGAKGNTATQMAQALSLNTEEDIHRAFQSLLTEVNKAGTQYLLRTANRLFGEKTCQFLSTFKESCLQFYHAELKELSFIRAAEESRKHINTWVSKKTEGKIEELLPGSSIDAETRLVLVNAIYFKGKWNEPFDETYTREMPFKINQEEQRPVQMMYQEATFKLAHVGEVRAQLLELPYARKELSLLVLLPDDGVELSTVEKSLTFEKLTAWTKPDCMKSTEVEVLLPKFKLQEDYDMESVLRHLGIVDAFQQGKADLSAMSAERDLCLSKFVHKSFVEVNEEGTEAAAASSCFVVAECCMESGPRFCADHPFLFFIRHNRANSILFCGRFSSP | not soluble |
| MPNLLDDSFDPTFQSTSKKLVLPSIRKVQPEYDNLPEEQGVNDFSSDELMKLLSFMEGEVQAREDVIDHLKRERTKILLSEAKYGKLNMNDPFAALRRDSAITGEQIDEEKIVQMYESQVDQLDKMMAVQKQSQRNAAVLLVALEKKQYKLVKKLEADREAKIRYAKQGDDLVAHLEKERNQLQQQIEFHIEEKRKAEIAKDKMEMTLGNEKKRHESIVLYLIQERKQMLLKMHELRVKAEQIMLQNQNDPTKPGPSSALSERELIEELKKEVTFLRAERESLTKTQKMVKTENLSLRETVRGQEADLQMLRRNLTLTGAKMSIDKPGNVLPQLPPDTGSLIMANRGAKPAVNRQQPAPPPVARLPNSATFPTEKSRLPRAPPPAVTTPVPRMSIGSLPASSSNVPRTMSSPVKKTPVMGVSSTAVRRPQSAATTTMPTTSVITNTSAVMPLSPDLEQLEAAIQSMNVVTASPPAYSTAMAKRSSSLPREANNNPPGAPIRRSTMNGGMHTSTTGVVSTRIAGPSSNVASERKLSGTVKRNGILAKAFGSSK | not soluble |
| MSLRTEEEMFQLIMDVAKQEEHIRAVGMVGSRTNVKAPKDSFQDFDIVYIVEPCAEFFETATWIAKFGQPLIMQRPKEMTLFPTEPKTRETFLMLFEDGQRIDLTLCPLAEKDNWHEGDSLAIILLDKDENLPPLPVASDKNYTVTVPDQQQFNDCCNEFWWVSTYVVKGLCRNELFYAVTHLYEYCQQELLRLLSWQAAWQEPEPISVGKQFKYLKNYVTPDTMDQLASLLDFSSKEACWNSLIKTQAFFDVVAQDFAKMAQFTYHLQEAKKVTEYTNSLRLKDLQGKEGHHHHHH | soluble |
| MSLKKYTMNEMVDITKDMLNKRGVMIEDIARIVQKLQEKYNPNLPLSVCMENVEKVLNKREIIHAVLTGLALDQLAEQKLLPEPLQHLVETDEPLYGIDEIIPLSIVNVYGSIGLTNFGYLDKEKIGIIKELDESPDGIHTFLDDIVAALAAAAASRIAHTHQDLQDEEKEQDEKPVVSEGGSHHHHHH | soluble |
| MQLSHRPAETGDLETVAGFPQDRDELFYCYPKAIWPFSVAQLAAAIAERRGSTVAVHDGQVLGFANFYQWQHGDFCALGNMMVAPAARGLGVARYLIGVMENLAREQYKARLMKISCFNANAAGLLLYTQLGYQPRAIAERHDPDGRRVALIQMDKPLEP | soluble |
| MGSDKIHHHHHHMMGMKETVSNIVTSQAEKGGVKHVYYVACGGSYAAFYPAKAFLEKEAKALTVGLYNSGEFINNPPVALGENAVVVVASHKGNTPETIKAAEIARQHGAPVIGLTWIMDSPLVAHCDYVETYTFGDGKDIAGEKTMKGLLSAVELLQQTEGYAHYDDFQDGVSKINRIVWRACEQVAERAQAFAQEYKDDKVIYTVASGAGYGAAYLQSICIFMEMQWIHSACIHSGEFFHGPFEITDANTPFFFQFSEGNTRAVDERALNFLKKYGRRIEVVDAKELGLSTIKTTVIDYFNHSLFNNVYPVYNRALAEARQHPLTTRRYMWKVEY | not soluble |
| MTNESEVGVKKAAELLRQGATMLEEACPICKMPLFKLKNGDVVCPVHGKVYIVKSDDEEKIVKRNLQLDEIESILIDGLYLSAKKMKEDPLDSERIIQIIRYLDALERLRKIKINSSE | not soluble |
| GKVAKPVLLHQSSTEVSSTNQVEVPDTTQSSPVSISSGLNSDPDMVDSPVVTGVSGMAVASVMGSLSQSATVFMSEVTNEAVYTMSPTAGPNHHLLSPDASQGLVLAVSSDGHKFAFPTTGSSESLSMLPTNVSEELVLSTTLDGGRKIPETTMNFDPDCFLNNPKQGQTYGGGGLKAEMVSSNIRHSPPGERSFSFTTVLTKEIKTEDTSFEQQMAKEAYSSSAAAVAASSLTLTAGSSLLPSGGGLSPSTTLEQMDFSAIDSNKDYTSSFSQTGHSPHIHQTPSPSFFLQDASKPLPVEQNTHSSLSDSGGTFVMPTVKTEASSQTSSCSGHVETRIESTSSLHLMQFQANFQAMTAEGEVTMETSQAAEGSEVLLKSGELQACSSEHYLQPETNGVIRSAGGVPILPGNVVQGLYPVAQPSLGNASNMELSLDHFDISFSNQFSDLINDFISVEGGSSTIYGHQLVSGDSTALSQSEDGARAPFTQAEMCLPCCSPQQGSLQLSSSEGGASTMAYMHVAEVVSAASAQGTLGMLQQSGRVFMVTDYSPEWSYPEGGVKVLITGPWQEASNNYSCLFDQISVPASLIQPGVLRCYCPAHDTGLVTLQVAFNNQIISNSVVFEYKARALPTLPSSQHDWLSLDDNQFRMSILERLEQMERRMAEMTGSQQHKQASGGGSSGGGSGSGNGGSQAQCASGTGALGSCFESRVVVVCEKMMSRACWAKSKHLIHSKTFRGMTLLHLAAAQGYATLIQTLIKWRTKHADSIDLELEVDPLNVDHFSCTPLMWACALGHLEAAVVLYKWDRRAISIPDSLGRLPLGIARSRGHVKLAECLEHLQRDEQAQLGQNPRIHCPASEEPSTESWMAQWHSEAISSPEIPKGVTVIASTNPELRRPRSEPSNYYSSESHKDYPAPKKHKLNPEYFQTRQEKLLPTALSLEEPNIRKQSPSSKQSVPETLSPSEGVRDFSRELSPPTPETAAFQASGSQPVGKWNSKDLYIGVSTVQVTGNPKGTSVGKEAAPSQVRPREPMSVLMMANREVVNTELGSYRDSAENEECGQPMDDIQVNMMTLAEHIIEATPDRIKQENFVPMESSGLERTDPATISSTMSWLASYLADADCLPSAAQIRSAYNEPLTPSSNTSLSPVGSPVSEIAFEKPNLPSAADWSEFLSASTSEKVENEFAQLTLSDHEQRELYEAARLVQTAFRKYKGRPLREQQEVAAAVIQRCYRKYKQLTWIALKYALYKKMTQAAILIQSKFRSYYEQKKFQQSRRAAVLIQKYYRSYKKCGKRRQARRTAVIVQQKLRSSLLTKKQDQAARKIMRFLRRCRHSPLVDHRLYKRSERIEKGQGT | soluble |
| MFLPKFNPIRSFSPILRAKTLLRYQNRMYLSTEIRKAIEDAIESAPVVLFMKGTPEFPKCGFSRATIGLLGNQGVDPAKFAAYNVLEDPELREGIKEFSEWPTIPQLYVNKEFIGGCDVITSMARSGELADLLEEAQALVPEEEEETKDR | soluble |
| MNIVITGGTGLIGRHLIPRLLELGHQITVVTRNPQKASSVLGPRVTLWQGLADQSNLNGVDAVINLAGEPIADKRWTHKQKERLCQSRWNITQKLVDLINASDTPPSVLISGSATGYYGDLGEVVVTEEEPPHNEFTHKLCARWEEIACRAQSDKTRVCLLRTGVVLAPDGGILGKMLPPFRLGLGGPIGSGRQYLAWIHIDDMVNGILWLLDNELRGPFNMVSPYPVRNEQFAHALGHALHRPAILRVPTTAIRLLMGESSVLVLGGQRALPKRLEEAGFAFRWYDLEEALADVVR | not soluble |
| EITPLIFQKQTTEEVQNLKPYTALQLEGRDIYIREGCNVCHSQMVRPFRSETERYGHYSVAGESVWEHPFLWGSKRTGPDLARVGGRYSDEWHRVHLLNPRELVPESNMPAFPWLAKNTLDGKYTQQKMTLFRDKFGVPYTDEQIANATKDVEGKTEMDAIIAYLQSLGHAMK | not soluble |
| VRPLNCIVAVSQNMGIGKNGDLPWPPLRNEFKYFQRMTTTSSVEGKQNLVIMGRKTWFSIPEKNRPLKDRINIVLSRELKEPPRGAHFLAKSLDDALRLIEQPELASKVDMVWIVGGSSVYQEAMNQPGHLRLFVTRIMQEFESDTFFPEIDLGKYKLLPEYPGVLSEVQEEKGIKYKFEVYEKKD | soluble |
| MGSDKIHHHHHHMTTATQSSAPGVNVDQAEVEKFSALAARWWDPESEFKPLHAINPLRLGWIQETAGSLSGKRVLDMGCGGGILSESMAVAGAQVTGIDLAEKSLKIARLHGLESGVKVDYRAVPVEELAAEQPGQYDVVTCMEMLEHVPDPASVVRACAALAKPGGWVFFSTLNRNPKSFLFAIVGAEYVLRLLPRGTHSYDSFIKPSELATSARQAGLEPTGMRGMEYNPITQVYSLSANTSVNYLMSTRK | not soluble |
| MNSRQQSILQMVVDKGQMSVAELAKITGVSEVTIRQDLNTLEKQSYLRRAHGFAVSLESDDVETRMMTNYTLKRRLAEFAASLVSPGESVFIENGSSNALLARTLAEQKDVTIITVSSYIAHLLKETPCEVILLGGIYQKKSESMVGPLTRQFIHQVHFSKAFIGIDGWQADTGFTGRDMMRSDVVNAVLEKGSEAIVLTDSSKFGCVHPYPLGPLSRFHRVITDSKISASDQMQLEHAGLLVNVIGSSVLEHHHHHH | soluble |
| MGSDKIHHHHHHMLSRIAESLFWIGRYVERADGTARILDVHLERLNHLPTEERDNVARELLAVMGARPESDEFGLEELLHALAYDKQSATSIAGSLGAARENARRARETVSSGLWESLNTTYYGLNQHRKDVVGTYRFCHWVLERTAMVSGLADTTVSHDDSWLFLALGRSLERADMTARMLSTRDVLSAGMSWVNMLRCAGAYESFLRTRRAAFGDQHAAEFLLLDRLFPRSIVYALRDADECLAKLDPSAQRVGFINDARRIVGQARTFLEFHRTDDLMSELPEHMERVQKAVSQASDAISRKYFNQADELAWVGEVS | not soluble |
| MSLRDSRYYCRLFSPAAVRGGIRRISAIYLNPSAFMSSLPITDRKIRFGLVGCGRISKNHIGAIAQHGDRAELVEICDTNPEALQAAEAATGARPFSSLSDMLAQGNADALVLATPSGLHPWQAIEVAQAGRHVVSEKPMATRWEDGKRMVKACDEAGVRLFVVKQNRRNATLQLVKKAIEQGRFGRIYMVTVNVFWTRPQEYYDAARWRGKWEWDGGAFMNQASHYVDLLDWLVGPVESVYAYTATLARRIEAEDTGVAALRWRHGAMGSINVTMLTYPQNLEGSITILGEKGTVRVGGVAVNRIDEWKFAEPHPDDDKIREANYETTSVYGFGHPLYYDNVINCLRGDCEPETDGREGLQSLALLTAIYRSARDGVRIPLPLDEGHHHHHH | soluble |
| MPKDKKKDEVTEVEHVDRNISSFSQISHLIDAEIITRLTLSHNKLTSVPPNIADLVSLQSLNLWNNQIEDLPPSISSLPKLRILNVGMNKLSILPRGFGSFPELEILDLTYNNLSERSLPGNFFFMQTLRALYLGDNDFEMLPGDVENLTNLQILVLRENDLLTLPKELGKLTRLRELHIQGNRLAMIPPELGNLELVGSKQVLRLEHNPFIPRIEEQFEANGAAGVWAHIRTDDYRYFFGRQEPSSTPVPPKRNKEKKVSRKGIQQA | not soluble |
